From patent US20070225240A1, “Screening Assay and Treatment” (priority 2003, published 2007)
Where two headings read alike, the source gives them in different places. Blank lines part the entries; values can stand above or below the molecule they belong to.

Tests used:
[1] = tested on: T1, GST-ASPP2 (693-1128), non-phosphorylated
T1 sequence: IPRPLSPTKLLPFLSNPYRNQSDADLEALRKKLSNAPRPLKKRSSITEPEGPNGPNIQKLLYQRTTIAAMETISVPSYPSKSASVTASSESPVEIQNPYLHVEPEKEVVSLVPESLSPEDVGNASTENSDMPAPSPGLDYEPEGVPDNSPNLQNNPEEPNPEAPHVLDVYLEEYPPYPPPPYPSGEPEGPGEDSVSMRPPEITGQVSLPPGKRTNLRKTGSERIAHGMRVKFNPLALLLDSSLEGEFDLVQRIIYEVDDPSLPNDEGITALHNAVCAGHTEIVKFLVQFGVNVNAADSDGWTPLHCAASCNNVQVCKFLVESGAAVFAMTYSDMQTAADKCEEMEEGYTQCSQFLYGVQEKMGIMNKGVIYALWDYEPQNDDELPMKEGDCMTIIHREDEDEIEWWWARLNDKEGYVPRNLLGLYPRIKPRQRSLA

[2] = biological target: full length ASPP2, V5-tagged (transfected) (Homo sapiens (Human)) (UniProt Q13625); assay: cell-based or functional assay
[3] = biological target: T2, full length ASPP1, V5-tagged (transfected) (Homo sapiens (Human)) (UniProt Q96KQ4); assay: cell-based or functional assay
T2 sequence: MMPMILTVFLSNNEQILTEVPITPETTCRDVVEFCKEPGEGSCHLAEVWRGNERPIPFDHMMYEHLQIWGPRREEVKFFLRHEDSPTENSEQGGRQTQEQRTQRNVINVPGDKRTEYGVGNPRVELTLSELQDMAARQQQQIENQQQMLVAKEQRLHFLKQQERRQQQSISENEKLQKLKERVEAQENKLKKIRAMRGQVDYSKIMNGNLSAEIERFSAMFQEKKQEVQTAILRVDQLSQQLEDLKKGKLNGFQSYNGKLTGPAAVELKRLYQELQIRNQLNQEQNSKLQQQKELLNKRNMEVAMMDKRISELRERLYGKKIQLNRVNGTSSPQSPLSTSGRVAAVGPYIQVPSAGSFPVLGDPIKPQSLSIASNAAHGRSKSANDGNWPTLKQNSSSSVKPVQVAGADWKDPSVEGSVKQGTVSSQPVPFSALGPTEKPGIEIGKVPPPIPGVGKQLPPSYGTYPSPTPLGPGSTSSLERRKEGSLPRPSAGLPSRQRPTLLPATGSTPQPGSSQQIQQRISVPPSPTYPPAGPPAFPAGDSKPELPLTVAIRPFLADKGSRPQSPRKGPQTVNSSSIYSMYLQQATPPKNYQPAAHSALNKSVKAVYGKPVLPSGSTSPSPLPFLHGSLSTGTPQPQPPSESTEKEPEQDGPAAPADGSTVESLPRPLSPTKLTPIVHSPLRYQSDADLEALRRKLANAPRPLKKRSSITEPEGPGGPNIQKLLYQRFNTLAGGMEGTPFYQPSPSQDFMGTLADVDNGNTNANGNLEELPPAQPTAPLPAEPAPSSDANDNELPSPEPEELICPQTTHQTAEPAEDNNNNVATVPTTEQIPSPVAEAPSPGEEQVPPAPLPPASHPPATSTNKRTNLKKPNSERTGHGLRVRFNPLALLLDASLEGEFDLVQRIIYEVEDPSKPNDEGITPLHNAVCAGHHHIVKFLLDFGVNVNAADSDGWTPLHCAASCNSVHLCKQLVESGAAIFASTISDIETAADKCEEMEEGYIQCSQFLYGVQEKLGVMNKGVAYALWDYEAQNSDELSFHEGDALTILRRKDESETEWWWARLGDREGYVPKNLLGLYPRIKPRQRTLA

[4] = biological target: full length ASPP2, V5-tagged (transfected) (Homo sapiens (Human)) (UniProt Q13625); assay: cell-based or functional assay; remark: listed apart in the source
[5] = biological target: purified recombinant Ras loaded with GTP; assay: in vitro immunoprecipitation with V5 antibody, intensity of the Ras bands (FIG. 23B)
[6] = biological target: purified recombinant Ras loaded with GTP; assay: in vitro immunoprecipitation of purified proteins with V5 antibody, intensity of the ras bands (FIG. 14C-D)
Ras = assay: In vitro immunoprecipitation of GDP/GTP-loaded Ras with ASPP1 fragment; assay type: binding; details: purified recombinant proteins, V5 immunoprecipitation, band intensity
Description: FIG. 14 illustrates that purified N-term ASPP1 binds directly in a preferential manner to Ras.GTP. A. Purified ras was loaded with tritium labelled -GDP, -GTP or not loaded as a control. The cpm counts of the tritium are shown. The differences in cpm is due to the fact that GDP and GTP were not tritium-labelled at the same level. B. Relative loading of ras-GDP and ras-GTP, showing the mol of nucleotide bound to ras. Both ras-GDP and ras-GTP were loaded with an equal amount of nucleotide. C. Loaded ras-GDP and ras-GTP with or without purified N-terminus ASPP1 was immunoprecipitated with a V5 antibody against the ASPP1 fragment. The immunoprecipitations were western blotted against ras to see whether there was direct and preferential binding of ras-GDP and ras-GTP to the amino-terminus of ASPP1. D. The intensity of the ras-GDP and ras-GTP bands pulled down by N-term ASPP1 were measured and shown as a graph. N-terminus ASPP1 binds ras-GTP four fold more strongly than it does to ras-GDP;
FIG. 23. Amino-terminus ASPP1 and ASPP2 preferentially bind activated Ras in vitro and in vivo. (A) Sequence homology between the amino-termini of ASPP1 and ASPP2 and the Ras-association domains (RAD) of RGL2 and AF-6. (B) The Ras protein loaded with either tritium-labelled GDP or GTP, was added to V5-tagged recombinant ASPP1 fragment (1-308) and immunoprecipitated with V5 antibody. As a negative control Ras-GDP and Ras-GTP were immunoprecipitated with V5 antibody in the absence of the ASPP1 fragment. The ASPP1 fragment preferentially bound Ras-GTP to Ras-GDP. The intensity of the bands representing immunoprecipitated Ras was quantified and the values shown as a bar graph in the right panel. […] The ASPP proteins were detected with mAbASPP1.54.1 that is known to cross-react with both ASPP1 and ASPP2. […]
2.5 μg of recombinant protein purified from Escherichia coli was incubated in a total volume of 320 μl assay buffer containing 2 μCi [3H] […] An aliquot of each sample had its tritium content measured to check the equal loading of GDP and GTP. […]

Molecule: recombinant MAPK1
in vitro phosphorylation (P32 incorporation) [1]: MAPK1, PKA, p38SAPK and p90rsk were all found to be able to phosphorylate ASPP2
in vitro phosphorylation assay with 32P-labelled ATP [1]: When compared to p38 SAPK, MAPK1 was clearly able to phosphorylate the ASPP2 fragment in vitro

Molecule: PKA
in vitro phosphorylation (P32 incorporation) [1]: MAPK1, PKA, p38SAPK and p90rsk were all found to be able to phosphorylate ASPP2

Molecule: p90rsk
in vitro phosphorylation (P32 incorporation) [1]: MAPK1, PKA, p38SAPK and p90rsk were all found to be able to phosphorylate ASPP2

Molecule: p38SAPK
in vitro phosphorylation (P32 incorporation) [1]: MAPK1, PKA, p38SAPK and p90rsk were all found to be able to phosphorylate ASPP2

Continued, values first:

transactivation function of p53 (bax-luciferase reporter, Saos2 cells) [2]: 2.5 fold
transactivation function of p53 (bax-luciferase reporter, Saos2 cells) [3]: 2.5 fold
Molecule: oncogenic K-RasV12, haemagglutinin-tagged (from UniProt P79800 1-185)

transactivation function of p53 (bax-luciferase reporter, Saos2 cells) [2]: 2.5 fold
transactivation function of p53 (bax-luciferase reporter, Saos2 cells) [3]: 2.5 fold
transactivation function of p53 (bax-luciferase reporter, Saos2 cells) [4]: 3 fold
Molecule: oncogenic H-RasV12, haemagglutinin-tagged (from UniProt P01112 1-186)

fold affinity for Ras-GTP over Ras-GDP [5]: 4 fold
fold binding to ras-GTP over ras-GDP [6]: 4 fold
B1: V5-tagged recombinant ASPP1 fragment (1-308) (protein, not shown: small tags and cut ends)
chain: MMPMILTVFLSNNEQILTEVPITPETTCRDVVEFCKEPGEGSCHLAEVWRGNERPIPFDHMMYEHLQIWGPRREEVKFFLRHEDSPTENSEQGGRQTQEQRTQRNVINVPGDKRTEYGVGNPRVELTLSELQDMAARQQQQIENQQQMLVAKEQRLHFLKQQERRQQQSISENEKLQKLKERVEAQENKLKKIRAMRGQVDYSKIMNGNLSAEIERFSAMFQEKKQEVQTAILRVDQLSQQLEDLKKGKLNGFQSYNGKLTGPAAVELKRLYQELQIRNQLNQEQNSKLQQQKELLNKRNMEVAMMDK

binding of Ras-GTP relative to Ras-GDP (Ras): 4 fold
binding of Ras-GTP relative to Ras-GDP (Ras; listed as N-terminus ASPP1): four fold
binding of Ras-GTP relative to Ras-GDP (Ras; listed as N-terminus of ASPP1): four-fold
B2: ASPP1 fragment (1-308): V5-tagged recombinant ASPP1 fragment (1-308) containing the Ras-association domain (protein)
chain: MMPMILTVFLSNNEQILTEVPITPETTCRDVVEFCKEPGEGSCHLAEVWRGNERPIPFDHMMYEHLQIWGPRREEVKFFLRHEDSPTENSEQGGRQTQEQRTQRNVINVPGDKRTEYGVGNPRVELTLSELQDMAARQQQQIENQQQMLVAKEQRLHFLKQQERRQQQSISENEKLQKLKERVEAQENKLKKIRAMRGQVDYSKIMNGNLSAEIERFSAMFQEKKQEVQTAILRVDQLSQQLEDLKKGKLNGFQSYNGKLTGPAAVELKRLYQELQIRNQLNQEQNSKLQQQKELLNKRNMEVAMMDK
modifications: left off: small tags and cut ends
notes: V5-tagged recombinant ASPP1 fragment (1-308) containing the Ras-association domain
